Reference: patent US20250297019A1

How the values were obtained:
human CCR8 (human) [1] = molecular target: human CCR8 (human) (UniProt P51685); assay: cell-based or functional assay
human CCR8 (human) [2] = molecular target: human CCR8 (human) (UniProt P51685); assay: assay not described ('in vitro assays')
[3] = molecular target: cynomolgus monkey CCR8 (cynomolgus monkey); assay: assay not described ('in vitro assays')
Sequence of cynomolgus monkey CCR8 (cynomolgus monkey) (O97665 other isoform, or with tags, fused parts or gaps): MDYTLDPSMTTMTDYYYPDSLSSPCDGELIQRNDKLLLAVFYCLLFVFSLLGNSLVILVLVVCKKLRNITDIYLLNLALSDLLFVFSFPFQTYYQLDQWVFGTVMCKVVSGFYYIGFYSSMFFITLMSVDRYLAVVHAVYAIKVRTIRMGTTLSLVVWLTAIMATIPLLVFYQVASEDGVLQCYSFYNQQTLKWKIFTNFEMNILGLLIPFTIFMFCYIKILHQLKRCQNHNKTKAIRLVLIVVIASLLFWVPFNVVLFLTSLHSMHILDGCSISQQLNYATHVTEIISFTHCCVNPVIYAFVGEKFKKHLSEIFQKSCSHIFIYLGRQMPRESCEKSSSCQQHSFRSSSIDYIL

IC50 of CCL1 blocking (Ca2+ influx, CHO/hCCR8.Gna15 cells) (human CCR8 (human) [1])	induction fold at plateau (about 40 nM antibody), mFcgRIV Jurkat reporter with CHO/hCCR8 (human CCR8 (human) [1])	induction fold, mFcgRIV Jurkat NFAT-luciferase reporter with CHO/hCCR8, at about 1 nM antibody (human CCR8 (human) [1])	ADCC geometric mean EC50 (calcein release; PBMC effector cells of 8 donors, hCCR8.GNA15 CHO target cells) (human CCR8 (human) [1])	Kd (human CCR8 (human) [2])	Kd [3]	Substance
0.0236 µM	11 fold	> 10 .fold	–	–	–	murine anti-human CCR8 mAb L263G8 (Biolegend) (antibody)
–	–	–	3 ng/mL	32 µM	27 µM	RO7502175 (antibody)
